Broadly, the Kd is the concentration at which binding is half-saturated. The low end stands for tighter binding, the high end for weaker binding.

In experiment [1] the target is Aβ1-42 labelled with HiLyte Fluor 488 (UniProt P05067). The experiment can be described thus: microscale thermophoresis (Monolith NT.115); labelled Aβ1-42 kept at 4 °C for one week (oligomers and fibres), PPP serially diluted.
Experiment [2] has the same target. The experiment can be described thus: microscale thermophoresis (Monolith NT.115); HiLyte Fluor 488-labelled Aβ1-42 at 80 nM in PBS, PPP serially diluted; freshly dissolved Aβ1-42. (In general: MST reads how a fluorescent partner responds to local heating, with and without ligand.)

Chain of UniProt P05067 (P05067 672-713 limits assumed): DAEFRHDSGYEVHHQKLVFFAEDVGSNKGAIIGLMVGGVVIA

For “Aβ-binding polymer (phagocytosis-promoting peptide, PPP): small peptide chain randomly synthesized from glutamic acid, lysine, alanine and tyrosine, molecular weight 4 kD to 52 kD (average 6.5 kD)”, the Kd in experiment [1] came to 25.4 nM; in experiment [2], 6.6 nM.

These data come from patent publication US20220357345A1.
